Target: 3XFLAG-Kenny LIR motif mutant (F7A/L10A) (Drosophila) (UniProt Q9GYV5)
Experiment: co-IP; anti-FLAG M2-agarose immunoprecipitation from lysates of transfected S2R+ cells, 4 °C overnight, elution with 3XFLAG peptide, blot for GFP

UniProt Q9GYV5, sequence (Q9GYV5 whole entry F7A/L10A): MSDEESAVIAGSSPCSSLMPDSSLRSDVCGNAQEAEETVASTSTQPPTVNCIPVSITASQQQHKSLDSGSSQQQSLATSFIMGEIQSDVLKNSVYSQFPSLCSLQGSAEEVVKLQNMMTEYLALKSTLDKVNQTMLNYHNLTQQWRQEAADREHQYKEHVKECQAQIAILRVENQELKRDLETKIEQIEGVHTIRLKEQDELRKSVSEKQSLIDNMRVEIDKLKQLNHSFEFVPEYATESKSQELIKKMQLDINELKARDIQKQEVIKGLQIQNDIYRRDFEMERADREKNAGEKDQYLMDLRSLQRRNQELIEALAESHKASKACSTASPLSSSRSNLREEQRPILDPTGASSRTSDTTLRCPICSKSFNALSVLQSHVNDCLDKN

eGFP-Atg8a (from UniProt Q9W2S2 1-121) (natural protein)
percent decrease in the interaction against wild-type 3XFLAG-Kenny: 62%
